# Biological target: F-actin of the thin filaments in NRCs, labelled with Phalloidin-iFluor 514 (rat (endogenous in neonatal rat cardiomyocytes)) (UniProt P68035)
# Test: FRET or BRET; FRET-FLIM (time-domain, TCSPC, donor lifetime) in NRCs demembranated in relaxing solution with 25 μmol/L nitro-blebbistatin and fixed with paraformaldehyde; mTFP donor, mVenus or Phalloidin-iFluor514 acceptor; cells untreated or incubated with isoproterenol before skinning
# Chain of mTFP-cMyBP-C (cardiac myosin binding protein-C with mTFP conjugated to its N terminus) (Q14896 whole entry): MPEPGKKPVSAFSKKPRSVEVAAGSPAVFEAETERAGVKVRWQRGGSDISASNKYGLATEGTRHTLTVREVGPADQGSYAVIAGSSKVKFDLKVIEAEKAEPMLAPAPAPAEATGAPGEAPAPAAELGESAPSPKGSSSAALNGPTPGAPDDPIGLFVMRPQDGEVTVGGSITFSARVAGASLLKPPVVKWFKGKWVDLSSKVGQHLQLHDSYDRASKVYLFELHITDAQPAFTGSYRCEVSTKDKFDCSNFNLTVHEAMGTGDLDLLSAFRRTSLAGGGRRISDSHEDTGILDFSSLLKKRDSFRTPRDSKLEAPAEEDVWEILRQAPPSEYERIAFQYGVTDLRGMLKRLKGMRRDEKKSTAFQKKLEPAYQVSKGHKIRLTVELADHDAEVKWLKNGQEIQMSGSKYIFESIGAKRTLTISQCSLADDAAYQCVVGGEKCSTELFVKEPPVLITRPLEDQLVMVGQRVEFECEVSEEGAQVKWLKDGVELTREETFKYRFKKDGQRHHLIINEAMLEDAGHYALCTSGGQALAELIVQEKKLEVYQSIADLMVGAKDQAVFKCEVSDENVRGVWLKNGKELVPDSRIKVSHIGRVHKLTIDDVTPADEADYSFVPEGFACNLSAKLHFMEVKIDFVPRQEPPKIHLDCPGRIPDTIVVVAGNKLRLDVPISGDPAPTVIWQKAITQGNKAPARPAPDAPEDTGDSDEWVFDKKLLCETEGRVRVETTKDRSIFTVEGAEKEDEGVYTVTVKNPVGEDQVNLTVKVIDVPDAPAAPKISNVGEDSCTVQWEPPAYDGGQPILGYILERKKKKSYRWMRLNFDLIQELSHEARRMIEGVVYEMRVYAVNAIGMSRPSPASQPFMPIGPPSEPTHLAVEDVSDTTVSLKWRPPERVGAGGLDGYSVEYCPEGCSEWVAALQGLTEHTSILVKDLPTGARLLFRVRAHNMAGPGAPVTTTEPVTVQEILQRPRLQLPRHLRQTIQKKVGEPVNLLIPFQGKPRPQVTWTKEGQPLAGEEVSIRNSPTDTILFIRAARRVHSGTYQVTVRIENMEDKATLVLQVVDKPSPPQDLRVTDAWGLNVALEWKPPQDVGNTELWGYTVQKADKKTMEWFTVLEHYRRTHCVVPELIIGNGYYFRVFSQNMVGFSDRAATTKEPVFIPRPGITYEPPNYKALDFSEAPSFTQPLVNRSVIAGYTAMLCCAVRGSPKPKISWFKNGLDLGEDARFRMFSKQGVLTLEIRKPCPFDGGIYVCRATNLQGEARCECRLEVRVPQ
substance,measurement,value
mTFP-cMyBP-C (cardiac myosin binding protein-C with mTFP conjugated to its N terminus) (from UniProt Q14896 1-1274) (natural protein),FRET efficiency <E%>,12%

# From publication PMC10041117
